Results taken from patent US20220047715A1, “FORCE-DEPENDENT DRUG RELEASE SYSTEM TO ENHANCE SELECTIVE KILLING AND MINIMIZE ADVERSE EFFECTS IN CANCER TREATMENT” (THE JOHNS HOPKINS UNIVERSITY, priority 2018, published 2022).

Assays:
CTLA4-CD80 bond = test: Micropillar-based measurement for CTLA4-CD80 tension; type: cell-based, human; settings: cancer cells on micropillars, FIG. 3b
Experimental: FIG. 3: Micropillar-based measurement for CTLA4-CD80 tension. (a) A cancer cell is cultured on micropillars. The forces transmitted to the CTLA4-CD80 bond bend the micropillars. (b) Cancer cells can generate ˜2-fold higher stress than normal cells. […] (c) Cancer cells generate 4-fold higher stress transmitted to the CTLA4-CD80 bond compared to integrin-fibronectin bond. Scale bar: 5 μm.
To determine which of the two possibilities described above is likely to be true, we measured the forces CTLA4 exerts on the CD80 upon binding in both normal cells and breast cancer cells. Since trans-endocytosis requires high forces to physically remove CD80 from the cell membrane of the APC, followed by internalization, we tested whether cancer cells yield higher forces if trans-endocytosis is the unique mechanism used by cancer cells to achieve immunosuppression. We tested the human breast cancer cells MDA-MB-231 and their normal counterpart MCF10A cells, as well as the mouse breast cancer cells EO771 and their normal counterpart EPH4-EV, all of which express CTLA4 (FIG. 1). […] We also measured the forces transmitted via CTLA4 in Treg cells purified from mouse spleens. […] Moreover, when HEK293 cells, in which endogenous CTLA4 is not detected, were transfected with CTLA4 cDNA, only minimal level of forces and no trans-endocytosis of CD80 could be recorded (FIG. 2 panel c).

[1] = cited from earlier work

Compound: Cc1ccc2c(c1)C(=O)C1(O)CCN(c3ccccc3)C1=N2 (stereo not drawn) [Blebbistatin]
- force generation transmitted through the CTLA4-CD80 bond (CTLA4-CD80 bond): does not inhibit

Compound: Ipilimumab
- patients experiencing skin lesions, colitis, hepatitis, hypophysitis, thyroiditis and other immune-related events ([1]; Ipilimumab alone, 81 reports, 1265 patients, 22 clinical trials): 72%
- patients experiencing adverse events ([1]; one study): 85%
